# From the RNAGym collection of RNA variant scans (doi:10.7554/elife.80360)
# B1: CPEB3 Ribozyme (parent)
# chain: GGGGGCCACAGCAGAAGCGUUCACGUCGCGGCCCCUGUCAGAUUCUGGUGAAUCUGCGAAUUCUGCUGU
# Variants of: B1
# Assay: self-cleavage, relative activity (ratio to wild type); higher = more cleavage; co-transcriptional
row,Variant,self-cleavage
1,GGGGGCCACAGCAGAAGCGUUGACGUCGCGGCCCCUGUCAGAUUCUGGUGAAUCUGCGAAGUCUGCUGU [C22G U61G],0.257
2,GGGGGCCACAGCAGAAGCGUUGACGUCGCGGCCCCUGUCAGAUUCUGGUGAAUCUGCGAACUCUGCUGU [C22G U61C],0.167
3,GGGGGCCACAGCAGAAGCGUUUACGUCGCGGCCUCUGUCAGAUUCUGGUGAAUCUGCGAAUUCUGCUGU [C22U C34U],0.332
4,GGGGGCCACAGCAGAAGCGUUUACGUCGCGGCCGCUGUCAGAUUCUGGUGAAUCUGCGAAUUCUGCUGU [C22U C34G],0.202
5,GGGGGCCACAGCAGAAGCGUUUACGUCGCGGCCACUGUCAGAUUCUGGUGAAUCUGCGAAUUCUGCUGU [C22U C34A],0.22
6,GGGGGCCACAGCAGAAGCGUUUACGUCGCGGUCCCUGUCAGAUUCUGGUGAAUCUGCGAAUUCUGCUGU [C22U C32U],0.33
7,GGGGGCCACAGCAGAAGCGUUUACGUCGCGGACCCUGUCAGAUUCUGGUGAAUCUGCGAAUUCUGCUGU [C22U C32A],0.17
8,GGGGGCCACAGCAGAAGCGUUUACAUCGCGGCCCCUGUCAGAUUCUGGUGAAUCUGCGAAUUCUGCUGU [C22U G25A],0.164
9,GGGGGCCACAGCAGAAGCGUUUACUUCGCGGCCCCUGUCAGAUUCUGGUGAAUCUGCGAAUUCUGCUGU [C22U G25U],0.153
10,GGGGGCCACAGCAGAAGCGUUUACCUCGCGGCCCCUGUCAGAUUCUGGUGAAUCUGCGAAUUCUGCUGU [C22U G25C],0.153
11,GGGGGCCACAGCAGAAGCGUUUACGUCGCGGCCCCUGUCAGAUUCUGGUGAAUAUGCGAAUUCUGCUGU [C22U C54A],0.19
12,GGGGGCCACAGCAGAAGCGUUUACGUCGCGGCCCCUGUCAGAUUUUGGUGAAUCUGCGAAUUCUGCUGU [C22U C45U],0.318
13,GGGGGCCACAGCAGAAGCGUUUACGUCGCGGCCCCUGUCAGAUUGUGGUGAAUCUGCGAAUUCUGCUGU [C22U C45G],0.25
14,GGGGGCCACAGCAGAAGCGUUUACGUCGCGGCCCCUGUCAGAUUAUGGUGAAUCUGCGAAUUCUGCUGU [C22U C45A],0.33
15,GGGGGCCACAGCAGAAGCGUUGACGUCGCGGCCCCUGUCAGAUUCUGGUGAAUCAGCGAAUUCUGCUGU [C22G U55A],0.116
16,GGGGGCCACAGCAGAAGCGUUGACGUCGCGGCCCCUGUCAGAUUCUGGUGAAUCCGCGAAUUCUGCUGU [C22G U55C],0.198
17,GGGGGCCACAGCAGAAGCGUUGACGUCGCGGCCCCUGUCAGAUUCUGGUGAAUCGGCGAAUUCUGCUGU [C22G U55G],0.14
18,GGGGGCCACAGCAGAAGCGUUUACGUCGCGGCCCCUGUCAGAUUCUGGUGGAUCUGCGAAUUCUGCUGU [C22U A51G],0.314
19,GGGGGCCACAGCAGAAGCGUUUACGUCGCGGCCCCUGUCAGAUUCUGGUGCAUCUGCGAAUUCUGCUGU [C22U A51C],0.291
20,GGGGGCCACAGCAGAAGCGUUUAUGUCGCGGCCCCUGUCAGAUUCUGGUGAAUCUGCGAAUUCUGCUGU [C22U C24U],0.105

row,Variant,self-cleavage
1,GGGGGCCACAGCAGAAGCGUUUAGGUCGCGGCCCCUGUCAGAUUCUGGUGAAUCUGCGAAUUCUGCUGU [C22U C24G],0.169
2,GGGGGCCACAGCAGAAGCGUUUACGUCGCGGCCCCUGUCAGAUUCUGGUGAAUCUGAGAAUUCUGCUGU [C22U C57A],0.166
3,GGGGGCCACAGCAGAAGCGUUGACGUCGCGGCCCCUGUCAGAUCCUGGUGAAUCUGCGAAUUCUGCUGU [C22G U44C],0.22
4,GGGGGCCACAGCAGAAGCGUUGACGUCGCGGCCCCUGUCAGAUACUGGUGAAUCUGCGAAUUCUGCUGU [C22G U44A],0.158
5,GGGGGCCACAGCAGAAGCGUUGACGUCGCGGCCCCUGUCAGAUUCAGGUGAAUCUGCGAAUUCUGCUGU [C22G U46A],0.205
6,GGGGGCCACAGCAGAAGCGUUGACGUCGCGGCCCCUGUCAGAUUCCGGUGAAUCUGCGAAUUCUGCUGU [C22G U46C],0.192
7,GGGGGCCACAGCAGAAGCGUUUACGUCGCGGCCCCUGUCAGAUUCUGGUGAAUCUGCGUAUUCUGCUGU [C22U A59U],0.201
8,GGGGGCCACAGCAGAAGCGUUUACGUCGCGGCCCCUGUCAGAUUCUGGUGAAUCUGCGCAUUCUGCUGU [C22U A59C],0.188
9,GGGGGCCACAGCAGAAGCGUUGACGUCGCGGCCCCUGUCAGAUUCUGGUGAAUCUGCGAAUGCUGCUGU [C22G U62G],0.162
10,GGGGGCCACAGCAGAAGCGUUGACGUCGCGGCCCCUGUCAGAUUCUGGUGAAUCUGCGAAUACUGCUGU [C22G U62A],0.194
11,GGGGGCCACAGCAGAAGCGUUGACGUCGCGGCCCCUGUCAGAUUCUGGUGAAUCUGCGAAUCCUGCUGU [C22G U62C],0.117
12,GGGGGCCACAGCAGAAGCGUUUACGUCGCGGCCCCUGUGAGAUUCUGGUGAAUCUGCGAAUUCUGCUGU [C22U C39G],0.207
13,GGGGGCCACAGCAGAAGCGUUUACGUCGCGGCCCCUGUAAGAUUCUGGUGAAUCUGCGAAUUCUGCUGU [C22U C39A],0.148
14,GGGGGCCACAGCAGAAGCGUUUACGUCGCGGCCCCUGUCAGUUUCUGGUGAAUCUGCGAAUUCUGCUGU [C22U A42U],0.27
15,GGGGGCCACAGCAGAAGCGUUUACGUCGCGGCCCCUGUCAGCUUCUGGUGAAUCUGCGAAUUCUGCUGU [C22U A42C],0.247
16,GGGGGCCACAGCAGAAGCGUUUACGUCGCGACCCCUGUCAGAUUCUGGUGAAUCUGCGAAUUCUGCUGU [C22U G31A],0.183
17,GGGGGCCACAGCAGAAGCGUUUACGUCGCGUCCCCUGUCAGAUUCUGGUGAAUCUGCGAAUUCUGCUGU [C22U G31U],0.116
18,GGGGGCCACAGCAGAAGCGUUUACGUCGCGCCCCCUGUCAGAUUCUGGUGAAUCUGCGAAUUCUGCUGU [C22U G31C],0.103
19,GGGGGCCACAGCAGAAGCGUUGACGUCGCGGCCCCUGUCAGAUUCUGGCGAAUCUGCGAAUUCUGCUGU [C22G U49C],0.123
